Laboratory results taken from PMC6555819, “Comprehensive study of nuclear receptor DNA binding provides a revised framework for understanding receptor specificity”.
Positions count from the first letter of the chain named.

B1: NRC3_wobSeed1_DR0_A20T_o1 (dsDNA)
DNA 1: GCCAAACTAGGTCAAGGTCTAAGTCGGTTTGTGCCAGCGATTGACAGCGTAGAATGAAGG
DNA 2: CCTTCATTCTACGCTGTCAATCGCTGGCACAAACCGACTTAGACCTTGACCTAGTTTGGC
B2: NRC3_wobSeed135_DR5_A29G_o1 (dsDNA)
DNA 1: GCCGAACTAGGTCATTGACAGGACAGTGGATAGTAAGCGATTGACAGCGTAGAATGAAGG
DNA 2: CCTTCATTCTACGCTGTCAATCGCTTACTATCCACTGTCCTGTCAATGACCTAGTTCGGC
B3: NRC3_wobSeed136_DR5_T16A_o1 (dsDNA)
DNA 1: GCTAGCCTAGGTCATACAGGGGCCAGTATAGAAAGCGCGATTGACAGCGTAGAATGAAGG
DNA 2: CCTTCATTCTACGCTGTCAATCGCGCTTTCTATACTGGCCCCTGTATGACCTAGGCTAGC
B4: NRC3_wobSeed112_DR4_G15C_o1 (dsDNA)
DNA 1: GCTAGCCTAGGTCACATCGGGCCAGTATACGCTATAGCGATTGACAGCGTAGAATGAAGG
DNA 2: CCTTCATTCTACGCTGTCAATCGCTATAGCGTATACTGGCCCGATGTGACCTAGGCTAGC
B5: NRC3_wobSeed12_DR0_T19C_o1 (dsDNA)
DNA 1: GCCCGACTGGGGCAAGGTCACCATAACGCACAGCCAGCGATTGACAGCGTAGAATGAAGG
DNA 2: CCTTCATTCTACGCTGTCAATCGCTGGCTGTGCGTTATGGTGACCTTGCCCCAGTCGGGC
B6: NRC3_wobSeed37_DR1_A14G_o1 (dsDNA)
DNA 1: GCCGTCCAAGGTCGAAGGTCAGTGAAGAGATGACGGGCGATTGACAGCGTAGAATGAAGG
DNA 2: CCTTCATTCTACGCTGTCAATCGCCCGTCATCTCTTCACTGACCTTCGACCTTGGACGGC
B7: NRC3_wobSeed82_DR3_A18C_o1 (dsDNA)
DNA 1: GCATCGAAAGGTCGACGCGGTGAGTATACACCGTTTGCGATTGACAGCGTAGAATGAAGG
DNA 2: CCTTCATTCTACGCTGTCAATCGCAAACGGTGTATACTCACCGCGTCGACCTTTCGATGC
B8: NRC3_wobSeed88_DR3_G20C_o1 (dsDNA)
DNA 1: GCTAGCCTAGGTCATGCGGCCCAGTATAGTGTCGGCGCGATTGACAGCGTAGAATGAAGG
DNA 2: CCTTCATTCTACGCTGTCAATCGCGCCGACACTATACTGGGCCGCATGACCTAGGCTAGC
B9: NRC3_wobSeed134_DR5_T23C_o1 (dsDNA)
DNA 1: GCGCTGCTAGGTCAACTGATGGCCAGCTAAAGCTCGGCGATTGACAGCGTAGAATGAAGG
DNA 2: CCTTCATTCTACGCTGTCAATCGCCGAGCTTTAGCTGGCCATCAGTTGACCTAGCAGCGC
B10: NRC3_wobSeed13_DR0_C13T_o1 (dsDNA)
DNA 1: GCCGTCCAAGGTTAAGGTCAGTGAAAGAGACTCGAAGCGATTGACAGCGTAGAATGAAGG
DNA 2: CCTTCATTCTACGCTGTCAATCGCTTCGAGTCTCTTTCACTGACCTTAACCTTGGACGGC
B11: NRC3_wobSeed28_DR1_A14T_o1 (dsDNA)
DNA 1: GCCCTACTGGGCCTAAGGTCATTGATTCCAATGCTCGCGATTGACAGCGTAGAATGAAGG
DNA 2: CCTTCATTCTACGCTGTCAATCGCGAGCATTGGAATCAATGACCTTAGGCCCAGTAGGGC
B12: NRC3_wobSeed39_DR1_A16G_o1 (dsDNA)
DNA 1: GCCGAACTAGGTCAAGGGACAGTGAAAGGCGACGTAGCGATTGACAGCGTAGAATGAAGG
DNA 2: CCTTCATTCTACGCTGTCAATCGCTACGTCGCCTTTCACTGTCCCTTGACCTAGTTCGGC
B13: NRC3_wobSeed16_DR0_C7A_o1 (dsDNA)
DNA 1: GCCAGCATAGGTCAGGGCCAGTATAGGAGGAACGTTGCGATTGACAGCGTAGAATGAAGG
DNA 2: CCTTCATTCTACGCTGTCAATCGCAACGTTCCTCCTATACTGGCCCTGACCTATGCTGGC
B14: NRC3_wobSeed110_DR4_A15T_o1 (dsDNA)
DNA 1: GCTCTGCTAGGTCATCGATGGTCAGCTAATCTGCTAGCGATTGACAGCGTAGAATGAAGG
DNA 2: CCTTCATTCTACGCTGTCAATCGCTAGCAGATTAGCTGACCATCGATGACCTAGCAGAGC
B15: NRC3_wobSeed76_DR3_G9C_o1 (dsDNA)
DNA 1: GCCCTACTCGGCCAAAAAGGTCATTGATGCCGATAAGCGATTGACAGCGTAGAATGAAGG
DNA 2: CCTTCATTCTACGCTGTCAATCGCTTATCGGCATCAATGACCTTTTTGGCCGAGTAGGGC
B16: NRC3_wobSeed76_DR3_T5A_o1 (dsDNA)
DNA 1: B15 DNA 1 with T5A, C9G
DNA 2: B15 DNA 2 with G52C, A56T
B17: NRC3_wobSeed76_DR3_A17G_o1 (dsDNA)
DNA 1: B15 DNA 1 with C9G, A17G
DNA 2: B15 DNA 2 with T44C, G52C
B18: NRC3_wobSeed137_DR5_A5T_o1 (dsDNA)
DNA 1: GCATTTGTAGGTTACATCCGGGTCATTCAGGCTATGGCGATTGACAGCGTAGAATGAAGG
DNA 2: CCTTCATTCTACGCTGTCAATCGCCATAGCCTGAATGACCCGGATGTAACCTACAAATGC
B19: NRC3_wobSeed15_DR0_G23A_o1 (dsDNA)
DNA 1: GCCGAACTAGGTCAAGGACAGTAAATCTCCGCACGCGCGATTGACAGCGTAGAATGAAGG
DNA 2: CCTTCATTCTACGCTGTCAATCGCGCGTGCGGAGATTTACTGTCCTTGACCTAGTTCGGC
B20: NRC3_wobSeed15_DR0_A18C_o1 (dsDNA)
DNA 1: B19 DNA 1 with A18C, A23G
DNA 2: B19 DNA 2 with T38C, T43G
B21: NRC3_wobSeed99_DR4_G16C_o1 (dsDNA)
DNA 1: GCTCTCGGAGGACACCAAAGGTCAGAGCTCGACATCGCGATTGACAGCGTAGAATGAAGG
DNA 2: CCTTCATTCTACGCTGTCAATCGCGATGTCGAGCTCTGACCTTTGGTGTCCTCCGAGAGC
B22: NRC3_wobSeed113_DR4_G29C_o1 (dsDNA)
DNA 1: GCATATGTAGGTTAGCTGGGGTCATTCACACTAGGCGCGATTGACAGCGTAGAATGAAGG
DNA 2: CCTTCATTCTACGCTGTCAATCGCGCCTAGTGTGAATGACCCCAGCTAACCTACATATGC
B23: NRC3_wobSeed50_DR2_G11T_o1 (dsDNA)
DNA 1: GCCCTAGTTGTTCAGGAGGTCACACACCGGATATGAGCGATTGACAGCGTAGAATGAAGG
DNA 2: CCTTCATTCTACGCTGTCAATCGCTCATATCCGGTGTGTGACCTCCTGAACAACTAGGGC
B24: NRC3_wobSeed27_DR1_A9T_o1 (dsDNA)
DNA 1: GCACTCGGTGGACAAAGGTCAGAGCTACGCCAGTGAGCGATTGACAGCGTAGAATGAAGG
DNA 2: CCTTCATTCTACGCTGTCAATCGCTCACTGGCGTAGCTCTGACCTTTGTCCACCGAGTGC
B25: NRC3_wobSeed46_DR1_A25C_o1 (dsDNA)
DNA 1: GCTTACCAAGGTGAAAGGTCGTTGCTGCACGCCTTGGCGATTGACAGCGTAGAATGAAGG
DNA 2: CCTTCATTCTACGCTGTCAATCGCCAAGGCGTGCAGCAACGACCTTTCACCTTGGTAAGC
B26: NRC3_wobSeed46_DR1_A5G_o1 (dsDNA)
DNA 1: B25 DNA 1 with A5G, C25A
DNA 2: B25 DNA 2 with G36T, T56C
B27: NRC3_wobSeed4_DR0_C7G_o1 (dsDNA)
DNA 1: GCCCTAGTGGGCCAAGGTCATTGATCAGTCAAAGCAGCGATTGACAGCGTAGAATGAAGG
DNA 2: CCTTCATTCTACGCTGTCAATCGCTGCTTTGACTGATCAATGACCTTGGCCCACTAGGGC
B28: NRC3_wobSeed44_DR1_A5T_o1 (dsDNA)
DNA 1: GCTGTATGAGGTTAAAGATCAGGGAACGTGGCGTCGGCGATTGACAGCGTAGAATGAAGG
DNA 2: CCTTCATTCTACGCTGTCAATCGCCGACGCCACGTTCCCTGATCTTTAACCTCATACAGC
B29: NRC3_wobSeed138_DR5_G19C_o1 (dsDNA)
DNA 1: GCGATACAGGGTCAGCTACAGGCCAGAGTATGGAAAGCGATTGACAGCGTAGAATGAAGG
DNA 2: CCTTCATTCTACGCTGTCAATCGCTTTCCATACTCTGGCCTGTAGCTGACCCTGTATCGC
B30: NRC3_wobSeed34_DR1_T4A_o1 (dsDNA)
DNA 1: GCAACGAAAGGTCGAAGGTGAGTATACCCACCCGAAGCGATTGACAGCGTAGAATGAAGG
DNA 2: CCTTCATTCTACGCTGTCAATCGCTTCGGGTGGGTATACTCACCTTCGACCTTTCGTTGC
B31: NRC3_wobSeed34_DR1_A21C_o1 (dsDNA)
DNA 1: B30 DNA 1 with A4T, A21C
DNA 2: B30 DNA 2 with T40G, T57A
B32: NRC3_wobSeed87_DR3_A23C_o1 (dsDNA)
DNA 1: GCCGAACTAGGTCATCCAGGACCGTGAATACATTGAGCGATTGACAGCGTAGAATGAAGG
DNA 2: CCTTCATTCTACGCTGTCAATCGCTCAATGTATTCACGGTCCTGGATGACCTAGTTCGGC
B33: NRC3_wobSeed87_DR3_T15C_o1 (dsDNA)
DNA 1: B32 DNA 1 with T15C, C23A
DNA 2: B32 DNA 2 with G38T, A46G

The binders below were run against FXR:RXRa (Homo sapiens, UniProt Q96RI1;P19793 full;full) (assay: no ligand; PBM; 270 nM : 90 nM RXRa; PBS pH 7.4, 2% milk, 0.02% Triton X-100, 1 mM DTT, BSA, 0.4 mg/ml salmon testes DNA). Conditions: tags: His kept;His cleaved; copies: 1;1; label: surface-attached array probe.
FXR:RXRa, sequence (Q96RI1 whole entry, chain 1 of 2): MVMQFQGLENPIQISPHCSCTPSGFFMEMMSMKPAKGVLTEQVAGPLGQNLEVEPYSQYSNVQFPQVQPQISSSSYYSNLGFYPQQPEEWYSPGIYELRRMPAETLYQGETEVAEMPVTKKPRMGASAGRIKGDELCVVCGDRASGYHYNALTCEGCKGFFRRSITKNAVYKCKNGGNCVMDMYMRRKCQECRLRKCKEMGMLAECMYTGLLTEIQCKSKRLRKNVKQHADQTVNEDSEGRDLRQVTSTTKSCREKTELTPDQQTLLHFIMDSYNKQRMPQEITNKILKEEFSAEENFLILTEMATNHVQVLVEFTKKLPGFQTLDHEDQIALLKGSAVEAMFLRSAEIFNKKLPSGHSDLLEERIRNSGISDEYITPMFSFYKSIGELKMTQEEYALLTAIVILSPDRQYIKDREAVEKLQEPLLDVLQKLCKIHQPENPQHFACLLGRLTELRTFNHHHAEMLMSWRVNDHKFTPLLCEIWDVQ
FXR:RXRa, sequence (P19793 whole entry, chain 2 of 2): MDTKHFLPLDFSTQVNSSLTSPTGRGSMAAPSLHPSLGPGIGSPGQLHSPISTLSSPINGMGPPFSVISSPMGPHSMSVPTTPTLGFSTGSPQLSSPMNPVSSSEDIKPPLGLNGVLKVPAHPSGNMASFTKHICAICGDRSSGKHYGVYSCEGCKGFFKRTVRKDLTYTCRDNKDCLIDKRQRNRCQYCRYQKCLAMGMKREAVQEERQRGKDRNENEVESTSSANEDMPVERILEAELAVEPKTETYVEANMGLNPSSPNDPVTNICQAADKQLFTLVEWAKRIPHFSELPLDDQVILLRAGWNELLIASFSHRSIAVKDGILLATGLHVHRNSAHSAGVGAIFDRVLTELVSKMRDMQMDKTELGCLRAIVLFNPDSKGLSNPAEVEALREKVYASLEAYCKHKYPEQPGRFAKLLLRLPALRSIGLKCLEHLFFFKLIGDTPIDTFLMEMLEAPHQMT
Method in brief: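 Random background probes are the reference for binding z-scores. These scores derive from regression-normalized fluorescence on custom Agilent 4×180K protein-binding microarrays incubated 1 h with ligand-free nuclear receptor dimers. Binding was detected with antibodies against each partner (one per run).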
B1 was tested, and the binding signal was 3.61 PBM z-score against 500 random probes. In the case of B2, the binding signal is reported as 4.02 PBM z-score against 500 random probes. For B3, the binding signal was 4.09 PBM z-score against 500 random probes. B4 was tested, and the binding signal was 3.96 PBM z-score against 500 random probes. In the case of B5, the binding signal is reported as 3.29 PBM z-score against 500 random probes. B6 was tested, and the binding signal was 3.76 PBM z-score against 500 random probes. For B7, the binding signal was 3.87 PBM z-score against 500 random probes. B8 was tested, and the binding signal was 3.84 PBM z-score against 500 random probes. B9 was tested, and the binding signal was 3.9 PBM z-score against 500 random probes. For B10, the binding signal was 4.12 PBM z-score against 500 random probes. In the case of B11, the binding signal is reported as 3.15 PBM z-score against 500 random probes. For B12, the binding signal was 3.42 PBM z-score against 500 random probes. In the case of B13, the binding signal is reported as 3.48 PBM z-score against 500 random probes. For B14, the binding signal was 3.45 PBM z-score against 500 random probes. B15 was tested, and the binding signal was 3.98 PBM z-score against 500 random probes. For B16, the binding signal was 3.39 PBM z-score against 500 random probes. With B17 the binding signal was 3.31 PBM z-score against 500 random probes. For B18, the binding signal was 3.26 PBM z-score against 500 random probes. With B19 the binding signal was 3.73 PBM z-score against 500 random probes. With B20 the binding signal was 3.52 PBM z-score against 500 random probes. With B21 the binding signal was 3.18 PBM z-score against 500 random probes. With B22 the binding signal was 4.06 PBM z-score against 500 random probes. With B23 the binding signal was 3.71 PBM z-score against 500 random probes. In the case of B24, the binding signal is reported as 3.23 PBM z-score against 500 random probes. For B25, the binding signal was 3.81 PBM z-score against 500 random probes. With B26 the binding signal was 3.55 PBM z-score against 500 random probes. B27 was tested, and the binding signal was 3.34 PBM z-score against 500 random probes. B28 was tested, and the binding signal was 3.64 PBM z-score against 500 random probes. With B29 the binding signal was 4.25 PBM z-score against 500 random probes. In the case of B30, the binding signal is reported as 4.23 PBM z-score against 500 random probes. In the case of B31, the binding signal is reported as 4.14 PBM z-score against 500 random probes. For B32, the binding signal was 3.93 PBM z-score against 500 random probes. For B33, the binding signal was 3.58 PBM z-score against 500 random probes.
